The values that follow come from article PMC8934654, “Structural characterization of the ANTAR antiterminator domain bound to RNA”.

Usually Kd stands for a measure of binding affinity in units of concentration.

The target in data set [1] is T1, EutV (Enterococcus faecalis, UniProt A0A1Q1FU69 1-190).
T1 sequence: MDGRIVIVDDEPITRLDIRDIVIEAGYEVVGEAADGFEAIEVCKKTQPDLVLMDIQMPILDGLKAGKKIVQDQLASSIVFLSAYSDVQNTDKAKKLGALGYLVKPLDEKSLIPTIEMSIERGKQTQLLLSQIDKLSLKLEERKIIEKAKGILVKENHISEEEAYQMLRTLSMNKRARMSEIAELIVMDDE
In words: SPR. Conditions: SPR: 10 mM HEPES pH 7, 150 mM NaCl, 0.05% Tween-20, 2.5 mM MgCl2, 4 C; EMSA: 25 mM HEPES pH 7.5, 150 mM NaCl, 10 mM MgCl2, 4 C, 25 nM RNA. In general terms: A gel shift assay detects complexes by their altered migration in electrophoresis.

Data set [2] has as its target T1, EutV. In words: SPR; CAPture chip, 2.5 mM MgCl2, n=8; SPR: 10 mM HEPES pH 7, 150 mM NaCl, 0.05% Tween-20, 2.5 mM MgCl2, 4 C; EMSA: 25 mM HEPES pH 7.5, 150 mM NaCl, 10 mM MgCl2, 4 C, 25 nM RNA. Conditions: protein: recombinant; tags: none (His-tag cleaved by TEV); chain copies: 2; label: 3' biotin-TEG; two hairpins with hexaloops P1 and P2. For orientation: SPR reads the build-up and loss of mass on a sensor chip optically.

The target in data set [3] is T1, EutV. The data set can be described thus: SPR; unphosphorylated, CM5 streptavidin chip, n=6; SPR: 10 mM HEPES pH 7, 150 mM NaCl, 0.05% Tween-20, 2.5 mM MgCl2, 4 C; EMSA: 25 mM HEPES pH 7.5, 150 mM NaCl, 10 mM MgCl2, 4 C, 25 nM RNA. Conditions: protein: recombinant; tags: none (His-tag cleaved by TEV); chain copies: 2; label: 3' biotin-TEG; two hairpins with hexaloops P1 and P2.

The target in the next data set is EutV Y164A (Enterococcus faecalis, UniProt A0A1Q1FU69 1-190, Y164A). In words: SPR; 2.5 mM MgCl2; SPR: 10 mM HEPES pH 7, 150 mM NaCl, 0.05% Tween-20, 2.5 mM MgCl2, 4 C; EMSA: 25 mM HEPES pH 7.5, 150 mM NaCl, 10 mM MgCl2, 4 C, 25 nM RNA. Conditions: protein: recombinant; chain copies: 2; label: 3' biotin-TEG; two hairpins with hexaloops P1 and P2.
The target in another data set is EutV R142A (Enterococcus faecalis, UniProt A0A1Q1FU69 1-190, R142A). The description is as above. Conditions: protein: recombinant; chain copies: 2; label: 3' biotin-TEG; two hairpins with hexaloops P1 and P2.
In another data set the target is EutV E160A (Enterococcus faecalis, UniProt A0A1Q1FU69 1-190, E160A). The data set is described as above. Conditions: protein: recombinant; chain copies: 2; label: 3' biotin-TEG; two hairpins with hexaloops P1 and P2.
Another data set addresses EutV K143A/K147A (Enterococcus faecalis, UniProt A0A1Q1FU69 1-190, K143A;K147A). Described as above. Conditions: protein: recombinant; chain copies: 2; label: 3' biotin-TEG; two hairpins with hexaloops P1 and P2.
In another data set the target is EutV N173A/R175A/R177A (Enterococcus faecalis, UniProt A0A1Q1FU69 1-190, N173A;R175A;R177A). The data set is described as above. Conditions: protein: recombinant; chain copies: 2; label: 3' biotin-TEG; two hairpins with hexaloops P1 and P2.
A further data set concerns the target EutV M172A (Enterococcus faecalis, UniProt A0A1Q1FU69 1-190, M172A). The data set is described as above. Conditions: protein: recombinant; chain copies: 2; label: 3' biotin-TEG; two hairpins with hexaloops P1 and P2.

P2 hairpin registered a Kd in the data set with EutV [1] of 3.1 µM.
For the molecule P1 hairpin, the dissociation constant (Kd) in the data set with EutV [1] was 6 µM.

B1: EutP RNA, 3' biotin (structured_RNA)
RNA: AGAAUCAGAAACACAAUGGCGUGUUUUAACAAAUCGGCAAAGGAGCCCAAG
As to B1, the Kd came to 3.8 ± 2.1 µM with EutV [2] and 2.2 ± 0.2 µM in the data set with EutV [3]. Also, the binding signal with EutV Y164A is 55 fold reduction in affinity vs WT; with EutV R142A, 8 fold reduction in affinity vs WT; with EutV E160A it was 60 fold reduction in affinity vs WT; with EutV K143A/K147A it was 5 fold reduction in affinity vs WT. The binding result in the data set with EutV N173A/R175A/R177A and with EutV M172A was “no binding” in each case.
